Measured values published in patent US20250270315A1 (ELPISCIENCE SUZHOU BIOPHARMA, published 2025).
Each block holds one binder with its values, some of them ahead of it.

Assays:
[1] = molecular target: T1, human SIRPβ ECD recombinant protein (6×His tagged) (human, UniProt O00241 30-371); experiment: ELISA, hSIRPβ ECD
T1 construct: extracellular domain; Bought from Sino Biological; also called hSIRPβ ECD; not shown: 6×His tag
From the text: (§1) Binding activity of the purified chimeric antibodies against SIRPβ and SIRPBI was detected by ELISA assay using recombinant proteins of human SIRPβ ECD (FIGS. 3A and 3B), human SIRPBI ECD (FIGS. 3D and 3E) and FACS assay using CHOK 1 cells stably expressing human SIRPB (FIG. 3C).

[2] = molecular target: T2, human SIRPβL ECD recombinant protein (6×His tagged) (human, UniProt Q5TFQ8 30-371); experiment: ELISA, hSIRPβI ECD
T2 construct: given variously as SIRPBL, SIRPBI and SIRPβI; Bought from Biointron; also called human SIRPBL ECD; human SIRPBI ECD
From the text: as §1

[3] = molecular target: T3, cyno SIRPγ ECD recombinant protein (cyno); experiment: ELISA, cyno SIRPγ ECD
T3 construct: extracellular domain

[4] = molecular target: full length human SIRPα v1 with a small beta-gal fragment (ED) fused to its C-terminal, expressed in K562 … (human, UniProt P78324 31-504); experiment: cell-based or functional assay
[5] = molecular target: T4, human SIRPβ stably expressed on CHOK1 cells (human, UniProt O00241 30-398); experiment: FACS, CHOK1-hSIRPβ cells
T4 construct: whole, on cells; also called CHOK1-human SIRPB; CHOK1-hSIRPβ
From the text: as §1

[6] = molecular target: T5, full length human SIRPα v1 stably expressed on CHOK1 or 293F cells (human, UniProt P78324 31-504); experiment: FACS, CHOK1-hSIRPα v1 cells
T5 construct: whole, on cells; also called CHOK1-human SIRPα v1; CHOK1-hSIRPα v1

[7] = molecular target: T6, human SIRPγ stably expressed on 293F cells (human, UniProt Q9P1W8 29-387); experiment: FACS, 293F-human SIRPγ cells
T6 construct: whole, on cells

[8] = molecular target: Human SIRPα v1 (antigen of the Octet and Biacore affinity measurements) (human, UniProt P78324 31-370, limits assumed); experiment: BLI (Octet), 1:1 binding model
Protocol: The purified chimeric antibodies were characterized for binding affinity against human SIRPα v1, human SIRPα v2 using Bio-Layer Interferometry technology (Octet system). The association and dissociation curves were fit with 1:1 binding model, and the Ka/Kd/KD values for each antibody were calculated.

[9] = molecular target: T7, C57BL/6 mouse SIRPα ECD recombinant protein (6×His tagged) (C57BL/6 mouse, UniProt P97797 32-373); experiment: ELISA, recombinant C57BL/6 mouse SIRPα ECD
T7 construct: extracellular domain; Bought from Biointron; not shown: 6×His tag
T7 sequence (looked up): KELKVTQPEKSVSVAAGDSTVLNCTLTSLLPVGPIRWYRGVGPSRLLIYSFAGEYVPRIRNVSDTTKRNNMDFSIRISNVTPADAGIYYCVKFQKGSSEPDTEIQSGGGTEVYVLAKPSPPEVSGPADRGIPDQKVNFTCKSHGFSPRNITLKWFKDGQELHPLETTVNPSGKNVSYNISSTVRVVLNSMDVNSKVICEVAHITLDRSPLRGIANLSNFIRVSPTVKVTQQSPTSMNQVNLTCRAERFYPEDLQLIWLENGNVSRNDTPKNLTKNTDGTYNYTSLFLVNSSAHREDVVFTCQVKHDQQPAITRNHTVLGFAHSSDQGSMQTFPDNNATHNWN
From the text: Species cross reactivity of purified chimeric antibodies was detected by ELISA assay using recombinant protein of C57BL/6 mouse SIRPα ECD (FIG. 5A) and FACS assay using CHOK 1 cells stably expressing cyno SIRPα (FIGS. 5B and 5C). All antibodies as tested bind to cyno SIRPα at different levels but have no species cross reactivity against C57BL/6 mouse SIRPα.

[10] = molecular target: T8, human SIRPα v1 ECD recombinant protein (tag not given) (human, UniProt P78324 31-373); experiment: competitive ELISA, mFc-CD47 ECD on coated SIRPα v1 ECD
T8 construct: extracellular domain; also called biotin labeled soluble human SIRPα v1 ECD recombinant protein; ELISA microplate coated human SIRPα v1 ECD
Protocol: (§2) Competitive ELISA assay was used to determine whether the purified chimeric antibodies can block CD47 and SIRPα interaction. Briefly, antibody and mFc tagged human CD47 ECD recombinant protein were co-incubated with ELISA microplate coated human SIRPα v1 ECD (FIGS. 6A and 6B) or human SIRPα v2 ECD (FIGS. 7A and 7B) recombinant protein. After washing, HRP labeled anti-mouse Fc 2nd antibody (Sigma) was added and incubated at 37° C. for 1 hour. Then, 100 μl/well of TMB solution (Biotechnology) was added. After incubation for 15 minutes at room temperature, the reaction was stopped by the addition of 50 μl of 1N HCl. OD 450 nm was read. Blocking ratio was determined by blockade of human CD47 ECD recombinant protein binding to ELISA microplate coated human SIRPα ECD recombinant protein. Other than 005, all antibodies as tested can block interaction between human CD47 and different human SIRPα variants.

[11] = molecular target: T9, human SIRPα v2 ECD recombinant protein (tag not given) (human); experiment: competitive ELISA, mFc-CD47 ECD on coated SIRPα v2 ECD
T9 construct: extracellular domain; also called ELISA microplate coated human SIRPα v2 ECD
Protocol: as §2

[12] = molecular target: T10, mFc tagged human SIRPα v1 ECD recombinant protein (human, UniProt P78324 31-373); experiment: competitive ELISA binning, mFc-SIRPα v1 ECD; competitor 025c
T10 construct: extracellular domain; Bought from Biointron; not shown: mouse IgG Fc (mFc) tag
Protocol: (§3) Competitive ELISA assay was used for epitope binning of purified chimeric antibodies. Briefly excessive competitor antibody and mFc tagged human SIRPα v1 ECD recombinant protein were co-incubated with ELISA microplate coated antibody. After washing, HRP labeled anti-mouse Fc 2nd antibody (Sigma) was added and incubated at 37° C. for 1 hour. Then, 100 μl/well of TMB solution (Biotechnology) was added. After incubation for 15 minutes at room temperature, the reaction was stopped by the addition of 50 μl of 1N HCl. OD 450 nm was read. Competition ratio was calculated. The antibodies that can compete each other for binding to SIRPα may have related binding epitopes.

[13] = molecular target: T10, mFc tagged human SIRPα v1 ECD …; experiment: competitive ELISA binning, mFc-SIRPα v1 ECD; competitor 042c
Protocol: as §3

[14] = molecular target: T10, mFc tagged human SIRPα v1 ECD …; experiment: competitive ELISA binning, mFc-SIRPα v1 ECD; competitor hu1H9G4
Protocol: as §3

[15] = molecular target: T5, full length human SIRPα v1 stably …; experiment: FACS, 293F-hSIRPα v1 cells

Human SIRPα v1 (antigen of the Octet and Biacore affinity measurements), sequence (P78324 31-370 limits assumed): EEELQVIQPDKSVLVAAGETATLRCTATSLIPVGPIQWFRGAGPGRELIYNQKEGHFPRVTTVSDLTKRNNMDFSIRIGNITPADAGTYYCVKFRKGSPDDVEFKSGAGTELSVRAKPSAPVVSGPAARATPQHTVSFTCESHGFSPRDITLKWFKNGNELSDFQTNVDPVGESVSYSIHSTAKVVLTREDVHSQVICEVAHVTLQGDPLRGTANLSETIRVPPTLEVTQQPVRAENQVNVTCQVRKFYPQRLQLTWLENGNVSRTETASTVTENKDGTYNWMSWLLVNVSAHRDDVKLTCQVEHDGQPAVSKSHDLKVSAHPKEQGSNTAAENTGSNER
T10 sequence (P78324 31-373): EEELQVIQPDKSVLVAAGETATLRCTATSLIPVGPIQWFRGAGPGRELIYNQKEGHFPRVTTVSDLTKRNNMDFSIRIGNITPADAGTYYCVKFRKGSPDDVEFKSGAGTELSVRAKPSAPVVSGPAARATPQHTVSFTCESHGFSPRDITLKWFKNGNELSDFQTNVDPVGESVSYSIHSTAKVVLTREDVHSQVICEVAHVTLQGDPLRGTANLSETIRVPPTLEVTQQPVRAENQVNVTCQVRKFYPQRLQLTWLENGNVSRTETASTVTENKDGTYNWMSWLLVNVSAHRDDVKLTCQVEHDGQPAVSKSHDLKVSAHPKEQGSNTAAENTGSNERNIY
full length human SIRPα v1 with a small beta-gal fragment (ED) fused to its C-terminal, expressed in K562 …, sequence (P78324 31-504): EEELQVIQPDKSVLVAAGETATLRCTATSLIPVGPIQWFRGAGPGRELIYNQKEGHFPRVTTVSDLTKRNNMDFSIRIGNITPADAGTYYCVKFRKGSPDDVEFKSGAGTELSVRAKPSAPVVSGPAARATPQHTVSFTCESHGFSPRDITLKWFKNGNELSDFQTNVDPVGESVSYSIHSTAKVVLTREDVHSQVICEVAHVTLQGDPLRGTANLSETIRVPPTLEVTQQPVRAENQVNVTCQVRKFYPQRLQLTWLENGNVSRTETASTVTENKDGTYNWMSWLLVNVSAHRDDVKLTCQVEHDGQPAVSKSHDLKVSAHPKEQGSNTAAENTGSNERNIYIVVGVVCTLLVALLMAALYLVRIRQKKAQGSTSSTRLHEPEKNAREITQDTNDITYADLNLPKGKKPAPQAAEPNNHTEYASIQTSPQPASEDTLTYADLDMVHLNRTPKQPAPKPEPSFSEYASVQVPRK
T5 sequence (P78324 31-504): as above
T4 sequence (O00241 30-398): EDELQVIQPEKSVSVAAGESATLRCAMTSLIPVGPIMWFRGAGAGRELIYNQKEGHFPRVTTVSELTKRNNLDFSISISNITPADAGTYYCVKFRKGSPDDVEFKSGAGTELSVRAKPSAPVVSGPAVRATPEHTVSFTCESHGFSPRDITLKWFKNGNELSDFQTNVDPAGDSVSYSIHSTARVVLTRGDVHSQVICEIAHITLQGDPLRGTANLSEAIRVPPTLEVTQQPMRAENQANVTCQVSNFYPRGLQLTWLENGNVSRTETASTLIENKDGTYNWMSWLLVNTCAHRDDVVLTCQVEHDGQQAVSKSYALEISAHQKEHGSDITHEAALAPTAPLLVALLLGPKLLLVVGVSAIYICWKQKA
T1 sequence (O00241 30-371): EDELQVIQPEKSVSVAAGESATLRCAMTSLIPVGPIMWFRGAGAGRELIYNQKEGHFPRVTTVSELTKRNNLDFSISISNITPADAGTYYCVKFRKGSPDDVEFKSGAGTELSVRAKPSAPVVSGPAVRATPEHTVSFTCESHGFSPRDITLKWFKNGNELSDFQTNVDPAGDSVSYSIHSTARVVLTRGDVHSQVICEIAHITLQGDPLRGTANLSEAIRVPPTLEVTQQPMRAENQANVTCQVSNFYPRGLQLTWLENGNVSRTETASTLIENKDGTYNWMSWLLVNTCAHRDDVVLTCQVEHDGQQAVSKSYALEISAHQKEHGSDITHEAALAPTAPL
T8 sequence (P78324 31-373): as the sequence (P78324 31-373) above
T2 sequence (Q5TFQ8 30-371 limits assumed): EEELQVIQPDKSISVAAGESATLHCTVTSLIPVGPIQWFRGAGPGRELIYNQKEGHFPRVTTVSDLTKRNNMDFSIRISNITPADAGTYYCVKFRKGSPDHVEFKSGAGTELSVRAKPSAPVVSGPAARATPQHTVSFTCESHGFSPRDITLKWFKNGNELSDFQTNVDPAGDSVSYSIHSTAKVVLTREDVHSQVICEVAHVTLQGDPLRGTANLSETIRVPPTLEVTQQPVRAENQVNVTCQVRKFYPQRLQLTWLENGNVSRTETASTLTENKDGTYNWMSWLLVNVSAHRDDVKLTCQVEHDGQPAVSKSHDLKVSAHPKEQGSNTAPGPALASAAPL
T6 sequence (Q9P1W8 29-387): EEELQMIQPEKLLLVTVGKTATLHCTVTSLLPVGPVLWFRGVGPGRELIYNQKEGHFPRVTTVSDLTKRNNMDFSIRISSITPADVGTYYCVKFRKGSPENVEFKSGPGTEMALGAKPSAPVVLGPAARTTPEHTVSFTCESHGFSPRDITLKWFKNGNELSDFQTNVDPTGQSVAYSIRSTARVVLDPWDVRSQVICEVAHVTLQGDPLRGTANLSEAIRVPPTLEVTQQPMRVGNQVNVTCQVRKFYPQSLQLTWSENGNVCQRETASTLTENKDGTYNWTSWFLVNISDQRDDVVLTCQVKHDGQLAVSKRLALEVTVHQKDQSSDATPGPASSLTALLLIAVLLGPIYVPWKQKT

- EC50 [1]: 2.14 nM
- TOP OD450 [1]: 3.07 OD450
- EC50 [2]: 0.27 nM
- TOP OD450 [2]: 2.64 OD450
- EC50 [3]: 45.5 nM
- TOP OD450 [3]: 0.92 OD450
- SHP-1 recruitment blocking, IC50 [4]: 5.66 nM
- SHP-1 recruitment blocking, TOP blocking (%) [4]: 51.2%
- EC50 [5]: 22.9 nM
- TOP MFI [5]: 2630 MFI
- EC50 [6]: 1.5 nM
- TOP MFI [6]: 67800 MFI
- EC50 [7]: 12.6 nM
- TOP MFI [7]: 728 MFI
- Kd [8]: 6.07 nM
- koff [8]: 0.00303 s⁻¹
- kon [8]: 499000 M⁻¹ s⁻¹
- binding result [9]: no binding
- IC50 [10]: 2.74 nM
- TOP blocking (%) [10]: 95.1%
- IC50 [11]: 4.92 nM
- TOP blocking (%) [11]: 82.8%
- % Competition [12]: 9.1%
- % Competition [13]: 93.6%
- % Competition [14]: 37.7%
B1: 073c (antibody, V domains shown)
VH: QIQLVQSGPELKKPGETVKISCKASGYTFTTYGMSWVKQAPGKGLKWMVWINTYSGVPTYADDFKGRFAFSLETSASTSYLQINNLKNEDTATYFCARDPHYYGSSPAWFVYWGQGTLVTVSA
VL: DIVMTQSQKFMSTTIGDRVSITCEASQIVGIAVAWYQQKPGQSPKLLIYSASNRYTGVPDRFTGSGSGTDFTLTISNMQSEDLANYFCQQYSAYPFTFGSGTKLEVK
notes: also called chimeric antibody 073c

- SHP-1 recruitment blocking, IC50 [4]: 3.85 nM
- SHP-1 recruitment blocking, TOP blocking (%) [4]: 76.4%
- EC50 [15]: 3.88 nM
B2: 005c (antibody, V domains shown)
VH: EVKLVESGGGLVQPGGSLSLSCAASGFTFTDYYMSWVRQPPGKALEWLGFIKNEANGYTTESSASVKGRFTISRDNSQSILYLQMNALRAEDSATYYCARYDYYGSNYNWYFDAWGTGTTVTVSS
VL: DIVMTQSQKFMSPSVGDRVSITCKASQNVRTAVAWYQQKPGQSPKVLIHLASKRHTGVPDRFTGSGSGTDFTLTISNVQSEDLADYFCLQHWIHPLTFGAGTKLELK
notes: also called chimeric antibody 005c
